Patent US6500417 (DSM N V, dated 2002)

What was measured:
[1] = target: T1, IL-3 receptor (human, UniProt P26951 19-378; P32927 17-897); test: competition with radiolabeled hIL-3 for binding to cells, relative to reference IL-3
T1 construct: whole, on cells; also called ILK3 receptor
Procedure: (§1) An ILK3 receptor binding assay was performed with purified recombinant hIL-3 (see EPA 0390252) was radiolabeled with the Bolton-Hunter reagent (as described by Budel et al., Blood 74 (1989) 565–571). The specific activity was estimated at 80,000 cpm/ng of IL-3. As target, either donor leukocytes, patient AML cells, or MV4-11 (ATCC: CRL-9591) cells were used. Cells were washed in Hanks Balanced Salt solution and suspended in Alpha-MEM plus 1% BSA. Usually, 3–10×10⁶ cells were incubated with 200–300 pM of radiolabeled IL-3 and various concentrations of unlabeled mutant protein in a total volume of 200 µl for 1 hr at 37° C. Cell-bound labeled IL-3 was centrifuged for 10 min at 1000×g at 4° C. through a 0.5 ml cushion of bovine calf serum in an Eppendorf tube (Budel et al., 1989). The tubes were frozen in liquid nitrogen and the tips cut off for counting in a Packard gamma counter. Competition binding was determined relative to the reference preparation. […] Radiolabeled IL-3 binding to patient AML blasts is competed with unlabeled IL-3 protein (reference preparation). Due to the low number of receptors (less than 200) on the target cells, data for competition mostly varied by one order of magnitude.

[2] = target: T1, IL-3 receptor; test: cell-based or functional assay
[3] = target: T1, IL-3 receptor; test: competition with radiolabeled IL-3 for binding to cells; NC: No competition was observed for the particular mutein preparation
Procedure: as §1

T1 sequence (P26951 19-378, chain 1 of 2): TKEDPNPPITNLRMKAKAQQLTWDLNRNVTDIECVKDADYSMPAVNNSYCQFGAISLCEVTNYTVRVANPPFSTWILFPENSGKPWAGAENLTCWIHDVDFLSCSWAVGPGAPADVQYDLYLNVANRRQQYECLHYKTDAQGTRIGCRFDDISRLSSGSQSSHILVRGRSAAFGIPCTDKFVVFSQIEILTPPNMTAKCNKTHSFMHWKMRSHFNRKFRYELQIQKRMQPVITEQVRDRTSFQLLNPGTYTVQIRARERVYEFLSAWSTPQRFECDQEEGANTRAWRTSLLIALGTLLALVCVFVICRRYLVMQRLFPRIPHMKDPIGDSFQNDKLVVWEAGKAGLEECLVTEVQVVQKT
T1 sequence (P32927 17-897, chain 2 of 2): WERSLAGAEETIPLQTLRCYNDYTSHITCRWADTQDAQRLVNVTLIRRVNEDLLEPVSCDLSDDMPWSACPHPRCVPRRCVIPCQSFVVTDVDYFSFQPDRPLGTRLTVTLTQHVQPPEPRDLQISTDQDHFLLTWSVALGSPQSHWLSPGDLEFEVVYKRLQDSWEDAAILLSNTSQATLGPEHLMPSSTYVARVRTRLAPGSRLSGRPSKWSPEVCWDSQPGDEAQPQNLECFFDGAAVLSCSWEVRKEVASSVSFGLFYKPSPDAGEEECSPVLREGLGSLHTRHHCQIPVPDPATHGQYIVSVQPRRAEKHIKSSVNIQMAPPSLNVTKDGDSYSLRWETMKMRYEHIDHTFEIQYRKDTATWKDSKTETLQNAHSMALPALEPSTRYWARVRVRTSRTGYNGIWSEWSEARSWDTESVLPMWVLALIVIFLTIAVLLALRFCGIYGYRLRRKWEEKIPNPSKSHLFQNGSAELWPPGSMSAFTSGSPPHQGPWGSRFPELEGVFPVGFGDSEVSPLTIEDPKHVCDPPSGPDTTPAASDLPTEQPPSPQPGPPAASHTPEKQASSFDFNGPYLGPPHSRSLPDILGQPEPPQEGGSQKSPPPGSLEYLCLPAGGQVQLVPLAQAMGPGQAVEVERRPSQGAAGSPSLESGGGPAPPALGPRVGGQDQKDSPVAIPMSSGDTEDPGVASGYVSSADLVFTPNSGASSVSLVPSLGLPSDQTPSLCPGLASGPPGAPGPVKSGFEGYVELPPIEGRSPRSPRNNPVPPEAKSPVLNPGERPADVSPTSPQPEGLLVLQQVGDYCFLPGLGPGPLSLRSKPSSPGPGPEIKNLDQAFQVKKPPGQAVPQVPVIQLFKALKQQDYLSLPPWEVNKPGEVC

| relative antagonistic potential (relative receptor binding activity / relative biological activity) [1] | REL. SPEC. BIOLOGICAL ACTIVITY (DNA synthesis of AML193 cells) [2] | binding result [3] | Binder |
| --- | --- | --- | --- |
| 1.2 | 5.3e-05 relative to reference IL-3 |  | hIL-3 deletion mutant 812 (deletion 54-61) (ligand, not shown: heterologous N-terminal leader of the E. coli fusion (pGB/IL-336: 12 aa; pGB/IL-339: 15 aa)) APMTQTTPLKTSWVNCSNMIDEIITHLKQPPLPLLDFNNLNGEDQDILMENNLNRAVKSLQNASAIESILKNLLPCLPLATAAPTRHPIHIKDGDWNEFRRKLTFYLKTLENAQAQQTTLSLAIF |
| 8.9 | 0.23 relative to reference IL-3 |  | hIL-3 combination deletion mutant X (deletions 1-14/120-133) (ligand, expressed in Bacillus, lacks a leader) NCSNMIDEIITHLKQPPLPLLDFNNLNGEDQDILMENNLRRPNLEAFNRAVKSLQNASAIESILKNLLPCLPLATAAPTRHPIHIKDGDWNEFRRKLTFYLKTLE |
| 1.1 | 0.79 relative to reference IL-3 |  | pGB/IL-336 IL-3 fusion protein (ligand) MTMITNSRGSVDAPMTQTTPLKTSWVNCSNMIDEIITHLKQPPLPLLDFNNLNGEDQDILMENNLRRPNLEAFNRAVKSLQNASAIESILKNLLPCLPLATAAPTRHPIHIKDGDWNEFRRKLTFYLKTLENAQAQQTTLSLAIF |
| 1.6 | 0.0048 relative to reference IL-3 |  | hIL-3 deletion mutant 811 (deletion 31-49) (ligand, expressed in Bacillus, lacks a leader) APMTQTTPLKTSWVNCSNMIDEIITHLKQPENNLRRPNLEAFNRAVKSLQNASAIESILKNLLPCLPLATAAPTRHPIHIKDGDWNEFRRKLTFYLKTLENAQAQQTTLSLAIF |
| 1.9 | 0.00021 relative to reference IL-3 |  | hIL-3 deletion mutant 822 (deletion 107-119) (ligand, not shown: heterologous N-terminal leader of the E. coli fusion (pGB/IL-336: 12 aa; pGB/IL-339: 15 aa)) APMTQTTPLKTSWVNCSNMIDEIITHLKQPPLPLLDFNNLNGEDQDILMENNLRRPNLEAFNRAVKSLQNASAIESILKNLLPCLPLATAAPTRHPIHIKDGDWNENAQAQQTTLSLAIF |
|  | 1 relative to reference IL-3 |  | reference IL-3 preparation (B. licheniformis, full-length IL-3 cDNA in pGB/IL-322) (ligand, radiolabeled with the Bolton-Hunter reagent when used as tracer) APMTQTTPLKTSWVNCSNMIDEIITHLKQPPLPLLDFNNLNGEDQDILMENNLRRPNLEAFNRAVKSLQNASAIESILKNLLPCLPLATAAPTRHPIHIKDGDWNEFRRKLTFYLKTLENAQAQQTTLSLAIF |
| 11 | 0.00019 relative to reference IL-3 |  | hIL-3 substitution mutant 905 (Cys84→Ala84) (ligand, also called 84C → A; not shown: heterologous N-terminal leader of the E. coli fusion (pGB/IL-336: 12 aa; pGB/IL-339: 15 aa)) APMTQTTPLKTSWVNCSNMIDEIITHLKQPPLPLLDFNNLNGEDQDILMENNLRRPNLEAFNRAVKSLQNASAIESILKNLLPALPLATAAPTRHPIHIKDGDWNEFRRKLTFYLKTLENAQAQQTTLSLAIF |
| 14 | 9.8e-05 relative to reference IL-3 |  | hIL-3 substitution mutant 1486 (Arg63Ala64→Pro63Gly64) (ligand, also called 63RA → PG; not shown: heterologous N-terminal leader of the E. coli fusion (pGB/IL-336: 12 aa; pGB/IL-339: 15 aa)) APMTQTTPLKTSWVNCSNMIDEIITHLKQPPLPLLDFNNLNGEDQDILMENNLRRPNLEAFNPGVKSLQNASAIESILKNLLPCLPLATAAPTRHPIHIKDGDWNEFRRKLTFYLKTLENAQAQQTTLSLAIF |
|  | < 1.2e-05 relative to reference IL-3 | no binding | hIL-3 substitution mutant 1493 (Phe113Tyr114→Ala113Thr114) (ligand, also called 113FY → AT; not shown: heterologous N-terminal leader of the E. coli fusion (pGB/IL-336: 12 aa; pGB/IL-339: 15 aa)) APMTQTTPLKTSWVNCSNMIDEIITHLKQPPLPLLDFNNLNGEDQDILMENNLRRPNLEAFNRAVKSLQNASAIESILKNLLPCLPLATAAPTRHPIHIKDGDWNEFRRKLTATLKTLENAQAQQTTLSLAIF |
| 2 | 3.1e-05 relative to reference IL-3 |  | hIL-3 substitution mutant 1492 (Arg108Arg109Lys110→Glu108Asp109Glu110) (ligand, also called 108RRK → EDE; not shown: heterologous N-terminal leader of the E. coli fusion (pGB/IL-336: 12 aa; pGB/IL-339: 15 aa)) APMTQTTPLKTSWVNCSNMIDEIITHLKQPPLPLLDFNNLNGEDQDILMENNLRRPNLEAFNRAVKSLQNASAIESILKNLLPCLPLATAAPTRHPIHIKDGDWNEFEDELTFYLKTLENAQAQQTTLSLAIF |
| 100 | 0.00024 relative to reference IL-3 |  | hIL-3 substitution mutant 904 (Cys16→Ala16) (ligand, also called 16C → A; not shown: heterologous N-terminal leader of the E. coli fusion (pGB/IL-336: 12 aa; pGB/IL-339: 15 aa)) APMTQTTPLKTSWVNASNMIDEIITHLKQPPLPLLDFNNLNGEDQDILMENNLRRPNLEAFNRAVKSLQNASAIESILKNLLPCLPLATAAPTRHPIHIKDGDWNEFRRKLTFYLKTLENAQAQQTTLSLAIF |
| 37 | 0.0027 relative to reference IL-3 |  | hIL-3 substitution mutant 1483 (Glu50→Lys50) (ligand, also called 50E → K; not shown: heterologous N-terminal leader of the E. coli fusion (pGB/IL-336: 12 aa; pGB/IL-339: 15 aa)) APMTQTTPLKTSWVNCSNMIDEIITHLKQPPLPLLDFNNLNGEDQDILMKNNLRRPNLEAFNRAVKSLQNASAIESILKNLLPCLPLATAAPTRHPIHIKDGDWNEFRRKLTFYLKTLENAQAQQTTLSLAIF |
| 65 | 0.0019 relative to reference IL-3 |  | hIL-3 substitution mutant 1488 (Lys79→Glu79) (ligand, also called 79K → E; not shown: heterologous N-terminal leader of the E. coli fusion (pGB/IL-336: 12 aa; pGB/IL-339: 15 aa)) APMTQTTPLKTSWVNCSNMIDEIITHLKQPPLPLLDFNNLNGEDQDILMENNLRRPNLEAFNRAVKSLQNASAIESILENLLPCLPLATAAPTRHPIHIKDGDWNEFRRKLTFYLKTLENAQAQQTTLSLAIF |
| 88 | 0.00031 relative to reference IL-3 |  | hIL-3 double cysteine mutant 9045 (Cys16Cys84→Ala16Ala84) (ligand, also called 16/84C → A; not shown: heterologous N-terminal leader of the E. coli fusion (pGB/IL-336: 12 aa; pGB/IL-339: 15 aa)) APMTQTTPLKTSWVNASNMIDEIITHLKQPPLPLLDFNNLNGEDQDILMENNLRRPNLEAFNRAVKSLQNASAIESILKNLLPALPLATAAPTRHPIHIKDGDWNEFRRKLTFYLKTLENAQAQQTTLSLAIF |
| 3.5 | 8e-05 relative to reference IL-3 |  | hIL-3 substitution mutant 1484 (Arg54Arg55→Glu54Asp55) (ligand, also called 54RR → ED; not shown: heterologous N-terminal leader of the E. coli fusion (pGB/IL-336: 12 aa; pGB/IL-339: 15 aa)) APMTQTTPLKTSWVNCSNMIDEIITHLKQPPLPLLDFNNLNGEDQDILMENNLEDPNLEAFNRAVKSLQNASAIESILKNLLPCLPLATAAPTRHPIHIKDGDWNEFRRKLTFYLKTLENAQAQQTTLSLAIF |
|  | < 0.00015 relative to reference IL-3 | no binding | hIL-3 substitution mutant 1481 (Glu43Asp44→Lys43Arg44) (ligand, also called 43ED→KR; not shown: heterologous N-terminal leader of the E. coli fusion (pGB/IL-336: 12 aa; pGB/IL-339: 15 aa)) APMTQTTPLKTSWVNCSNMIDEIITHLKQPPLPLLDFNNLNGKRQDILMENNLRRPNLEAFNRAVKSLQNASAIESILKNLLPCLPLATAAPTRHPIHIKDGDWNEFRRKLTFYLKTLENAQAQQTTLSLAIF |
| 2.4 | 0.0021 relative to reference IL-3 |  | hIL-3 deletion mutant 810 (deletion 20-30) (ligand, also called 4810; not shown: heterologous N-terminal leader of the E. coli fusion (pGB/IL-336: 12 aa; pGB/IL-339: 15 aa)) APMTQTTPLKTSWVNCSNMPLPLLDFNNLNGEDQDILMENNLRRPNLEAFNRAVKSLQNASAIESILKNLLPCLPLATAAPTRHPIHIKDGDWNEFRRKLTFYLKTLENAQAQQTTLSLAIF |
| 1.1 | 0.0057 relative to reference IL-3 |  | hIL-3 deletion mutant 933 (deletion 29-37) (ligand, expressed in Bacillus, lacks a leader) APMTQTTPLKTSWVNCSNMIDEIITHLKNNLNGEDQDILMENNLRRPNLEAFNRAVKSLQNASAIESILKNLLPCLPLATAAPTRHPIHIKDGDWNEFRRKLTFYLKTLENAQAQQTTLSLAIF |
| 1.6 | 0.11 relative to reference IL-3 |  | hIL-3 combination deletion mutant Z (deletions 1-14/116-133) (ligand, expressed in Bacillus, lacks a leader) NCSNMIDEIITHLKQPPLPLLDFNNLNGEDQDILMENNLRRPNLEAFNRAVKSLQNASAIESILKNLLPCLPLATAAPTRHPIHIKDGDWNEFRRKLTFYL |
